According to the supplement of paper PMC10567573:
± gives the standard deviation.

Assay: protein stability index of a GFP-peptide fusion (GPS, HEK-293T) (PSI 1-6); higher = more stable
[1] = treatment: DMSO, c terminus: a fixed tail appended
[2] = treatment: MLN4924 1 uM, 8 h, c terminus: a fixed tail appended
[3] = treatment: DMSO, c terminus: native
[4] = treatment: MLN4924 1 uM, 8 h, c terminus: native
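Note: 24-mer peptide tiles fused after GFP, lentivirally expressed, FACS-sorted into six equal bins by GFP/DsRed ratio, decoded by Illumina sequencing, PSI is the read-weighted mean bin number.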

Sequence | protein stability index [1] | protein stability index [2] | protein stability index [3] | protein stability index [4]
MHVACQHGQENIVRILLRRGVDVS [RIPK4] | 2.29 ± 0.32 | 2.24 ± 0.45 | – | –
RVWLKRDSGQYWPSIYHTMASPCS [WDFY1] | 2.06 ± 0.27 | 2.16 ± 0.21 | – | –
EMSRGEQDLIEDLKLARKAYHDPM [NET1] | 4.5 ± 0.27 | 4.47 ± 0.33 | – | –
HPLAYGMVGPLAQDPQSPMAGLRW [POMT2] | 2.85 ± 0.39 | 2.77 ± 0.18 | – | –
LGLTNQSRRYNRKEPAEFNGDGAF [ZNF649] | 3.96 ± 0.29 | 4.26 ± 0.37 | – | –
PTTRNYPELNNNQYNRSSNSNGGN [CDC14A] | 4.654 ± 0.022 | 4.79 ± 0.1 | – | –
NPEEIRGGGLLKYSNLLVRDFRPT [TENT5C] | 3.04 ± 0.3 | 3.14 ± 0.31 | – | –
AKDEDQWTALHFAAQNGDESSTRL [RIPK4] | 4.54 ± 0.95 | 5.086 ± 0.023 | – | –
SVAGWSLFSLNVISLTCVSVAFAV [SLC19A2] | 2.92 ± 0.15 | 3.21 ± 0.27 | – | –
GSSSSSSSSINSPDRASGPEGSLS [FAM104A] | 5.5 ± 0.22 | 5.45 ± 0.2 | – | –
SAIQALRSSVSRVFDCLKDGMRNK [MED27] | 2.7 ± 0.33 | 2.49 ± 0.28 | – | –
VIFGVELPGNEEFQVVKDAVLDCL [TENT5D] | 2.23 ± 0.41 | 2.25 ± 0.24 | – | –
SPLTLAACGGHVELAALLIERGAS [ANKRD17] | 2.48 ± 0.33 | 2.48 ± 0.31 | – | –
RVNEKEIVRLRTIGELLAPAAPFD [WSB1] | 3.44 ± 0.2 | 3.5 ± 0.21 | – | –
SIIECDMNVDFDAPLGYKEPERQV [UFD1] | 4.27 ± 0.22 | 4.31 ± 0.18 | – | –
GSYNGQIGWFPSNYVLEEVDEAAA [NCK2] | 4.65 ± 0.29 | 4.66 ± 0.36 | – | –
LCLACSAGYYELAQVLLAMHANVE [ANKRD17] | 2.96 ± 0.48 | 2.56 ± 0.25 | – | –
DPDINMHPFFFALGKILSVELGKQ [FADS1] | 2.46 ± 0.61 | 2.38 ± 0.59 | – | –
LRVSPAEQPRLEFLMRKCGWFVRE [FBXO33] | 1.97 ± 0.12 | 2.08 ± 0.38 | – | –
GSNRSGSDRRKEKDPKAGDSKSGG [DVL3] | 5.63 ± 0.21 | 5.47 ± 0.23 | – | –
AGKEAMTSDGYTALHLAARNGHLA [RIPK4] | 3.43 ± 0.69 | 3.85 ± 0.36 | – | –
LLLNNANPNLSNRRGSTPLHMAVE [RIPK4] | 2.41 ± 0.25 | 2.73 ± 0.43 | – | –
YRQKKRAEQEALTGECKELEKKNE [ATF4] | 5.47 ± 0.24 | 5.59 ± 0.19 | – | –

Sequence | protein stability index [1] | protein stability index [2] | protein stability index [3] | protein stability index [4]
PHSDQRLRPQRTKQYVLLSILLCL [TMEM106C] | 2.34 ± 0.48 | 2.11 ± 0.17 | – | –
IDEYCVQQLKEFDGKSLVSVTKEG [HSP90AB1] | 5.19 ± 0.25 | 4.99 ± 0.14 | – | –
SDVLIGDILVLLGASLYAISNVCE [SLC35F2] | 2.79 ± 0.28 | 3.36 ± 0.67 | – | –
QEITEQQDIAQEISEAFSQRVGFG [CHMP4C] | 5.02 ± 0.14 | 4.77 ± 0.38 | – | –
AEEAEILHSACGLSKDHQEVETEG [TOR1AIP2] | 5.45 ± 0.33 | 5.72 ± 0.24 | – | –
DHGVPEHPTPFLAFLRRVKTCNPP [PTPRD] | 3.16 ± 0.042 | 3.16 ± 0.25 | – | –
LLKQGYNKTLLRLRLRKERVSDVQ [PKD2L1] | 2.35 ± 0.28 | 2.44 ± 0.27 | – | –
KYKKAVGLKLKQEKKEAYLKLKQG [WDR88] | 2.98 ± 0.87 | 3.58 ± 0.27 | – | –
SAEKCGPPPPIDNGDITSFLLSVY [CFHR2] | 2.4 ± 0.16 | 2.33 ± 0.27 | – | –
KKKKIGFYFEVCGMMVESVNAKTL [PCDHGA10] | 2.28 ± 0.68 | 2.18 ± 0.38 | – | –
ETAEEVSARIVQVVTAEAVAVLKG [MAP2] | 3.36 ± 0.27 | 3.45 ± 0.34 | – | –
PERSDLTLYLIVALATVSLLSLVT [PCDHGC5] | 2.02 ± 0.44 | 2.27 ± 0.56 | – | –
DEKYGVPSLEELGFDTDGLSSAVW [CRY1] | 3.65 ± 0.22 | 3.86 ± 0.45 | – | –
CRYLNFTKGEEISVYVKLAGERED [MIA2] | 2.52 ± 0.26 | 2.77 ± 0.22 | – | –
EKSQAYPRRRRPGCYAYRQNPEAI [MYORG] | 3.34 ± 0.27 | 3.32 ± 0.14 | – | –
RCFWLGMEGLETAEGSNSESSDDD [SDE2] | 5.22 ± 0.42 | 5.09 ± 0.3 | – | –
YDDDIDDEDEEEEDADCYDDDDSG [UBE2R2] | 5.58 ± 0.11 | 5.61 ± 0.24 | – | –
SAVQYFQFYGYLSQQQNMMQDYVR [CARM1] | 2.6 ± 0.72 | 3.35 ± 0.64 | – | –
IFCIKRFTKNNFFVEKNPTIVNFP [USP39] | 3.02 ± 0.74 | 2.38 ± 0.76 | – | –
HSGYDFGYLIKILTNSNLPEEELD [CNOT7] | 2.27 ± 0.19 | 2.48 ± 0.3 | – | –
AVMEHAESKMYATSPYSDPVVSMD [PTPRD] | 4.3 ± 0.36 | 4.24 ± 0.53 | – | –
PMLETASKLLLSGTADGADLRTVD [ANKRD17] | 4.68 ± 0.077 | 4.67 ± 0.22 | – | –
LRRELELLGRERDRVQVERDGLAE [PRPH] | 4.6 ± 0.49 | 4.8 ± 0.36 | – | –

Sequence | protein stability index [1] | protein stability index [2] | protein stability index [3] | protein stability index [4]
TLPLQDRELGPEELDELQAAFEEF [CABP4] | 5.27 ± 0.23 | 5.27 ± 0.24 | – | –
TEYQIVTDPGDVPAFLKWLSLASL [SLC2A12] | 2.26 ± 0.35 | 2.16 ± 0.42 | – | –
DNPPTFSQVSYFTYIPENNARGAS [PCDHGA10] | 3.44 ± 0.46 | 3.49 ± 0.49 | – | –
SAASGARFPLDSAQDPDVGTNTVS [PCDHGC5] | 5.39 ± 0.12 | 5.2 ± 0.31 | – | –
SGMTEVERTYSANCSDFLESKGCF [SPATS1] | 3.62 ± 0.24 | 3.62 ± 0.43 | – | –
REVDLNGDGTVDFDEFVMMLSRH [CABP4] | – | – | 4 ± 0.17 | 4.23 ± 0.28
VGRIIAPLLSGVAQEVSPCGPPSL [MFSD9] | 2.72 ± 0.23 | 2.65 ± 0.29 | – | –
KERPLVIGHFNTASGVGFILGPVV [MFSD9] | 3.04 ± 1.1 | 2.77 ± 0.51 | – | –
EAPASVVPFVRVKREREVDEDSEP [USP39] | 5.51 ± 0.17 | 5.51 ± 0.2 | – | –
FKEVKEKFKGWVSYSTSEQAELSY [DLC1] | 3.13 ± 0.27 | 2.87 ± 0.31 | – | –
EIQVDSEEPVFEAVINWVKHAKKE [KLHL12] | 3.57 ± 0.4 | 3.92 ± 0.95 | – | –
LEAVLHCHQMGVVHRDLKPENLLL [CAMK2B] | 2.22 ± 0.3 | 2.15 ± 0.35 | – | –
PTQKALYNDVMQENYETVISLALF [ZNF75A] | 2.57 ± 0.45 | 2.47 ± 0.37 | – | –
IKQIQQLFEEILSNSRQLKWLSCG [FBXO33] | 3.57 ± 1.6 | 1.94 ± 0.58 | – | –
MDGESEEEQESVDTGEEEEGGDES [EHMT1] | 5.66 ± 0.15 | 5.51 ± 0.16 | – | –
RPEEEEDELAHRCSSFMAPPVTDL [CPOX] | 5.05 ± 0.26 | 5.03 ± 0.18 | – | –
LQQQNEDLKARIDQNTVVTRQLSE [MTUS2] | 5.1 ± 0.26 | 5.21 ± 0.083 | – | –
LAATQAEKAVANFDRTEWVQIRRL [ZC2HC1C] | 3.45 ± 0.11 | 3.16 ± 0.37 | – | –
AVLASCSQYFRSLFSSHPPLGGGV [KLHL14] | 2.4 ± 0.37 | 2.22 ± 0.22 | – | –
LDMSQNVSLVTAELSKDAQASAAP [SLC29A1] | 5.16 ± 0.12 | 5.08 ± 0.095 | – | –
SDSAPRNKISRFQAPISAPEYTYG [MFF] | 3.59 ± 0.71 | 3.56 ± 0.21 | – | –
CVLTTPCLTQSTAAPAVRASSSPV [SLA] | 3.47 ± 0.13 | 3.49 ± 0.14 | – | –
PACHSFNRAIHKKAKGTEAEEEY [FBXO34] | – | – | 5.25 ± 0.49 | 5.41 ± 0.34

Sequence | protein stability index [1] | protein stability index [2] | protein stability index [3] | protein stability index [4]
DFPEEDDPTNWLRCYYYEDTISTI [NCF4] | 3.28 ± 0.25 | 3.2 ± 0.22 | – | –
AISSPTVSRLTDTTKFTGSHKERF [TPPP] | 4.17 ± 0.26 | 4.29 ± 0.12 | – | –
AVAVDVAVPKRLLEIVGREGVSLT [HAGHL] | 2.84 ± 0.23 | 2.84 ± 0.19 | – | –
CKIRIQRQLEIMGKEVSGDQIEDM [STX11] | 4.01 ± 0.2 | 3.94 ± 0.12 | – | –
KQAEICQLEEKLEIANEDRKHALE [CCDC89] | 5.52 ± 0.28 | 5.49 ± 0.077 | – | –
FLDWLRTNPDLIIVCAQSSQSLWN [SMG5] | 2.5 ± 0.41 | 2.36 ± 0.41 | – | –
ASTVTEIVKQQDPLVYKAIQQGIN [ACSBG2] | 3.49 ± 0.3 | 3.96 ± 0.35 | – | –
PEQVQNEIKSMKKRMSELCIDFNK [NLN] | 4.11 ± 0.44 | 4.23 ± 0.52 | – | –
NFADEDEAQAFRALVQEKIQKRNQ [WAS] | 4.55 ± 0.29 | 4.62 ± 0.3 | – | –
EEKADVLARGPLNQTALHLAAAHG [RIPK4] | 4.5 ± 0.17 | – | – | –
NVNSNLITWNRVVLLHGPPGTGKT [TRIP13] | 2.45 ± 0.21 | 2.53 ± 0.14 | – | –
LKYQAPDIDVQLSSELTDSLRTLK [NOP53] | 2.79 ± 0.14 | 3.14 ± 0.45 | – | –
AIPTKKSLPSPSSSGHQNRRFSSE [FBF1] | 4.82 ± 0.27 | 4.9 ± 0.15 | – | –
PTLKKCEDVARPTQRLWDFTQSGP [GALNT9] | 3.69 ± 0.24 | 4 ± 0.17 | – | –
FGQQDWKFLASHFPNRTDQQCQYR [MYBL2] | 2.62 ± 0.36 | 3.08 ± 0.27 | – | –
PAVTPDPWGVQGGQESEVPYKREE [PKD2L1] | 5.24 ± 0.33 | 5.49 ± 0.16 | – | –
PSRAPPSTQEPQSPREGEELKPED [GNAS] | 5.5 ± 0.33 | 5.5 ± 0.32 | – | –
SSSSRVLLRQQLMRAQAQEQERRE [TFE3] | 4.87 ± 0.3 | 5.02 ± 0.22 | – | –
GGAGREDPGLWSRLCRLAGASSPA [ZSWIM9] | 3.12 ± 0.17 | 2.92 ± 0.36 | – | –
FVWYTPPTFMIAVFLPIVVLIFKS [STEAP1] | 3.33 ± 1.6 | 2.81 ± 1.2 | – | –
